B1: LINE1-full (parent)
chain: UACGUAGGUGGUUUUCCCCUGAUAGUGCUAAGGGGGCCUGGAAGUUUGGACUGGGCAGAGCUCAACACAGCGUGGCAAAGUGGCUGUGGCUAGACUGCCUCUCUGGAUUCCUCGUCACUCAGCAGGGCAUCUCUGAGAGAAAUGCC

Variants of: B1
Experiment: self-cleavage, relative activity (ratio to wild type); higher = more cleavage; in vitro, sequencing; the parent is a self-cleaving ribozyme

Variant | self-cleavage
A22U A57U | 0.12
G27A U132C | 1.27
G88A A129G | 0.07
A107C A117U | 2.03
U39C A79G | 1.21
A65G C68A | 0.04
U109C A124G | 0.78
G35A A142G | 1.14
A2G G55U | 0.49
U108C A121U | 2.15
U9A G114C | 0.61
U62G A65U | 0.16
G27A G144A | 1.08
U115A A141G | 1.5
A43U U115C | 1.21
G93A C101A | 0.04
A69U U73C | 0.05
U13C C103U | 1.06
A92G C120U | 0.07
U52A C113U | 1.41
C37A A65G | 0.01
U14C U119A | 1.25
A2G A24G | 0.71
U15C A138U | 1.86

Variant | self-cleavage
U23C A64C | 0.29
G40U A59C | 0.82
U104A U119A | 1.23
A24G A121U | 2.93
A94U U115C | 0.45
G122C A136U | 1.96
A117G U132A | 0.59
G93U U96C | 0.06
U29A U112C | 0.43
G33A U143A | 1.07
A30G C120U | 1.53
A42G C84A | 0.15
U100C U102C | 1.65
A65G C110U | 0.07
U102A G135A | 1.47
A67G U102C | 0.58
U1A U115A | 1.1
G7A C18U | 1.59
A59U A94G | 1.71
U45G A121U | 1.82
A79U U112A | 1.97
U91C C123U | 0.8
A94U U104C | 0.55
U12C U62A | 0.13

Variant | self-cleavage
A79G U134A | 1.07
U5C U112A | 1.15
C118A | 1.11
A59G U62C | 0.1
U20A C38U | 0.87
U29A U119G | 1.31
G32A A138U | 0.89
U39C G54U | 0.39
U26C A67U | 0.06
A64G U73G | 0.15
A30G G126U | 0.96
U96C A136C | 0
G4C U15C | 1.18
G55U U115A | 0.14
U47A C128U | 1.39
U115C U130G | 0.66
C71A C133U | 0.08
A59G A92C | 0.14
U20C A42G | 1.25
C37U U143C | 0.84
A67C C71A | 0.02
C51U U85A | 0.09
G4A U112C | 1.31
U12C G86A | 0.14

Variant | self-cleavage
A117G | 1.49
U13A G126U | 1.86
A43G G80A | 1.48
C84U U132C | 0.14
A22G U52A | 1.21
G48A U130A | 0.91
U9A C18A | 1.09
A2G A57G | 0.68
U85C U108A | 0.28
U96C A129U | 0.1
U5C A136G | 1.62
A43G C116U | 1.22
G35U A43U | 1.33
U52C U81C | 1.08
U5C A43G | 1.03
C3U A24U | 1.15
U52A U96C | 0.15
A22G G48U | 1.05
A57U C61U | 0.03
A129G U143A | 1.77
G25A A65C | 0.02
A50C U81A | 1.76
U62A U143A | 0.04
U12A A30G | 0.94

Variant | self-cleavage
G127A A138G | 1.36
U46G U73G | 1.5
U46C A121U | 1.25
A31U G126U | 0.79
U102A C120U | 1.65
U5A U85C | 0.2
U45A A57C | 0.14
U26A U29A | 1.12
A2C A57U | 0.11
A43G U47C | 1.31
G53A A107G | 1.28
C61U A129U | 0.02
U119C A138G | 1.84
U73C A129G | 1.98
G86U G105A | 0.06
U5C A65G | 0.15
G55A C111U | 0.3
A2G U85A | 0.25
U52G A136U | 1.1
U108C C145A | 1.47
U14C U23C | 1.4
A64G G105U | 0.15
U47C A94C | 0.12
A65G A69C | 0

Variant | self-cleavage
U119C A129U | 1.82
G4U C61U | 0.08
U15C G32C | 1.16
A107U C113U | 0.69
U47G G48U | 0.74
C3U A59U | 0.56
U112C C145A | 1.39
A124G C128U | 0.53
G49A A129U | 1.46
G105A U130C | 0.96
G49U A92G | 0.04
G33U A107G | 1.74
A42G C146G | 0.45
A67U G75A | 0.09
U15C C120U | 1.72
A64G G114U | 0.24
A42U U112A | 1.15
U52A U115C | 1.42
U12G U109C | 1.57
A77G U96C | 0.18
G53U A107G | 1.08
C95A U108C | 0
G7U C123U | 1.39
U12C A142U | 0.91

Variant | self-cleavage
A6U U26A | 0.87
C98A A141G | 0.17
G34A A78U | 1.75
A31U A77G | 1.39
A50C G82A | 2.06
G4A A92G | 0
A42U A129U | 0.86
G74U A94G | 0.15
C131A A142G | 0.98
G7U U13C | 0.99
A50G A129C | 0.75
U1G U96C | 0.87
G34A C66U | 0.05
A121G U134G | 1.58
G48A A94U | 0.18
G27A A67G | 0.45
U39C U100A | 0.53
A42U A77U | 0.83
G32A A78U | 1.32
U15A U132C | 0.98
G4C U112C | 1.42
U46C U119G | 1.02
U130C A141C | 2.91
A124G U134C | 0.89

Variant | self-cleavage
A57U A94C | 0.1
C61G A77U | 0.04
A79G A142G | 1.12
U20G U102C | 1.73
A2U C56A | 0.03
U62A C133U | 0.04
C28U C84U | 0.25
U52G G80C | 0.97
G53A G126A | 1.23
U9A U52C | 0.74
U13C U91C | 0.99
A67G A141G | 0.38
A77G G82A | 0.85
A2U U130C | 0.32
C61U C76U | 0.04
U91A U130G | 1.24
U15C G122A | 1.66
A129G A136G | 1.7
U1C G83U | 0.25
C19U U26A | 0.95
G106A C128U | 1.7
C51U A67G | 0.5
G55A U112C | 0.14
C90U A117G | 0.06

Variant | self-cleavage
C71U G144A | 1.27
U9C G122A | 1.43
U109C U143G | 0.87
A79G U85A | 0.08
A31G A69U | 0.12
G75A U100A | 0.42
C76G A78G | 1.7
G7A | 1.08
U134G A142G | 1.16
G72A A142G | 1.27
U20A U132C | 1.49
C95U A129G | 0.19
A22G G34U | 1.66
G41U A129C | 1.02
C76U C113A | 2.15
A107G U130C | 2.26
G82U U134G | 1.3
U1C U104C | 0.68
G58A A77G | 0.06
C19U U96C | 0.18
U115A U134A | 0.95
G8C U14G | 1.39
C51A U108A | 1.31
A43U U73C | 1.79

Variant | self-cleavage
A59G U81G | 0.09
U100C U143C | 1.97
C101A A129U | 2.2
G4C U132C | 0.97
A65G C90U | 0.03
G53U U108C | 1.56
C71U A117G | 0.64
A24U U62C | 0.08
A42G C95U | 0.2
A124U G127A | 0.9
A64G U87A | 0.07
U47G U112A | 0.94
U13G U85A | 0.06
A117G G127A | 2
C103U | 1.23
U14A A24U | 0.77
C28A G54A | 0.57
A22G U119C | 1.43
A69G U91A | 0.16
A107G U143A | 1.51
U9G A79G | 0.63
C113U U130C | 1.77
A50G G122A | 0.83
U13A A67G | 0.22

Variant | self-cleavage
C56U A67G | 0.07
U20C U112C | 1.4
U104A C113A | 0.91
C68A U73C | 0.05
C17U A138C | 1.12
U119C A142U | 1.95
G32A A50G | 0.93
A24G U52A | 0.79
U23C U47A | 1.9
C56A A121G | 0.03
U39G A136G | 1.65
U100C U112C | 1.89
U12G A43G | 1.41
A124G C133A | 0.81
A92U U108C | 1.2
U39G U52A | 1.16
C98U A121G | 0.44
G11A U108C | 1.58
A22G A124G | 0.96
C16U A64G | 0.09
C98A U102C | 0.13
A22G A136U | 0.87
U13C A24U | 1.11
C68G A121C | 0.03

Variant | self-cleavage
A141U U143C | 0.28
U47G U81C | 0
U13A U81C | 0.85
A107G A124G | 0.96
C90G A92G | 0.03
A65U A121U | 0.24
U13C C99U | 0.48
A22G C123U | 0.99
U14C U91G | 0.24
U87C C98U | 0.02
A30U A42G | 0.99
U62A U96C | 0.06
A59G A129U | 0.19
U85C A117U | 0.19
A129C A140C | 1.29
C56G U91C | 0.05
U73G U109C | 1.07
U15G A129G | 0.61
U52G U85C | 0.15
A77G G135U | 0.63
A92U U130G | 1.61
A43G C76U | 1.66
A24C A65U | 0
A31G A141G | 1.1

Variant | self-cleavage
C56U A141G | 0.14
A64G A94U | 0.08
U15A A31U | 1.05
G97A C111U | 0.07
U29C G53A | 0.94
G11A U119A | 0.93
U13C G40U | 1.87
U45C C68U | 0.16
A69G U96A | 0.04
G40A A107G | 1.17
A31G U47A | 0.94
A6U U73C | 1.21
A136U C146U | 1.58
U13C C131A | 1.28
G34C A140C | 1.79
C118U U143A | 1.31
U109C A142C | 1.45
C71U A79G | 0.2
G33A U108C | 1.47
U45A A59U | 0.6
G41A G60U | 0.04
G11A A142G | 1.23
A92G U108C | 1.11
G55C A77U | 0.06

Variant | self-cleavage
A67G G89U | 0.02
U100A G125A | 1.05
U52C | 1.24
G74A U130C | 0.87
A65G G144U | 0.06
A67G G125U | 0.39
A77U A129G | 1.45
G114C | 1.63
G106U | 1.05
A59G U96C | 0.04
G137A A140G | 1.4
U73A U112A | 2.03
A67C | 0.06
U29G G35C | 1.03
A67U A142U | 0.14
A65U A129U | 0.18
A31G C110U | 0.51
C111A U130A | 1.16
A77G A140G | 1.7
A43C A77U | 1.39
U14A U81G | 0.8
G34A U130C | 1.32

From the RNAGym collection of RNA variant scans (doi:10.7554/elife.90254)
